This note sets out measurements from IntAct's records for PubMed 9804817.

The labels stand for the following.
B1: Tyrosine-protein phosphatase non-receptor type 18 (Mus musculus), Q61152 (parent)
chain: MSRHTDLVRSFLEQLEARDYREGAILAREFSDIKARSVAWKSEGVCSTKAGSRLGNTNKNRYKDVVAYDETRVILSLLQEEGHGDYINANFIRGIDGSQAYIATQGPLPHTLLDFWRLVWEFGVKVILMACQETENGRRKCERYWAREQEPLKAGPFCITLTKETTLNADITLRTLQVTFQKEFRSVHQLQYMSWPDHGVPSSSDHILTMVEEARCLQGLGPGPLCVHCSAGCGRTGVLCAVDYVRQLLLTQTIPPNFSLFQVVLEMRKQRPAAVQTEEQYRFLYHTVAQLFSRTLQDTSPHYQNLKENCAPICKEAFSLRTSSALPATSRPPGGVLRSISVPAPPTLPMADTYAVVQKRGASAGTGPGPRAPTSTDTPIYSQVAPRAQRPVAHTEDAQGTTALRRVPADQNSSGPDAYEEVTDGAQTGGLGFNLRIGRPKGPRDPPAEWTRV
partner: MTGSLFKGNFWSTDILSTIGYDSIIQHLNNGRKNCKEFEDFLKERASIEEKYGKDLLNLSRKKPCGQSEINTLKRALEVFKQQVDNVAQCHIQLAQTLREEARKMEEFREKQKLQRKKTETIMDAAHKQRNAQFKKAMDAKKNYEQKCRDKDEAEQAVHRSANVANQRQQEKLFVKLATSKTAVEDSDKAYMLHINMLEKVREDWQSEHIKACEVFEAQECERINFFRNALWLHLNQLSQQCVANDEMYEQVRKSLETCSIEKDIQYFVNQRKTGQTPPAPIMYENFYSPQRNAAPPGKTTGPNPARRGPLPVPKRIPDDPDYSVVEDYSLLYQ
B2: Proline-serine-threonine phosphatase-interacting protein 1 (Mus musculus), P97814 (parent)
chain: MMAQLQFRDAFWCRDFTAHTGYEVLLQRLLDGRKMCKDVEELLRQRAQAEERYGKELVQIARKAGGQTEMNSLRTSFDSLKQQTENVGSAHIQLALALREELRSLEEFRERQKEQRKKYEAIMDRVQKSKLSLYKKTMESKKAYDQKCRDADDAEQAFERVSANGHQKQVEKSQNKAKQCKESATEAERVYRQNIEQLERARTEWEQEHRTTCEAFQLQEFDRLTILRNALWVHCNQLSMQCVKDDELYEEVRLTLEGCDVEGDINGFIQSKSTGREPPAPVPYQNYYDREVTPLIGSPSIQPSCGVIKRFSGLLHGSPKTTPSAPAASTETLTPTPERNELVYASIEVQATQGNLNSSAQDYRALYDYTAQNSDELDISAGDILAVILEGEDGWWTVERNGQRGFVPGSYLEKL
partner: B1 chain
B3: Proline-serine-threonine phosphatase-interacting protein 2 (Mus musculus), Q99M15 (parent)
chain: B1 partner
partner: B1 chain
B4: Tyrosine-protein phosphatase non-receptor type 18 (Mus musculus), Q61152 (parent)
chain: B1 chain

The variants in the first assay derive from B1. The note with it: with ppip2_mouse Pstpip2, Q99M15.
As for MSRHTDLVRSFLEQLEARDYREGAILAREFSDIKARSVAWKSEGVCSTKAGSRLGNTNKNRYKDVVAYDETRVILSLLQEEGHGDYINANFIRGIDGSQAYIATQGPLPHTLLDFWRLVWEFGVKVILMACQETENGRRKCERYWAREQEPLKAGPFCITLTKETTLNADITLRTLQVTFQKEFRSVHQLQYMSWPDHGVPSSSDHILTMVEEARCLQGLGPGPLCVHCSAGCGRTGVLCAVDYVRQLLLTQTIPPNFSLFQVVLEMRKQRPAAVQTEEQYRFLYHTVAQLFSRTLQDTSPHYQNLKENCAPICKEAFSLRTSSALPATSRPPGGVLRSISVPAPPTLPMADTYAVVQKRGASAGTGPGPRAPTSTDTPIYSQVAPRAQRPVAHTEDAQGTTALRRVPADQNSSGPDAYEEVTDGAQTGGLGFNLRIGRPKGPRDPPAEATRV [W450A], the “effect of a mutation on the interaction” value is listed as “decreasing interaction”.

Another assay covers variants of B1. The conditions noted are these: with ppip2_mouse Pstpip2, Q99M15. The source holds these as a separate data set.
MSRHTDLVRSFLEQLEARDYREGAILAREFSDIKARSVAWKSEGVCSTKAGSRLGNTNKNRYKDVVAYDETRVILSLLQEEGHGDYINANFIRGIDGSQAYIATQGPLPHTLLDFWRLVWEFGVKVILMACQETENGRRKCERYWAREQEPLKAGPFCITLTKETTLNADITLRTLQVTFQKEFRSVHQLQYMSWPDHGVPSSSDHILTMVEEARCLQGLGPGPLCVHCSAGCGRTGVLCAVDYVRQLLLTQTIPPNFSLFQVVLEMRKQRPAAVQTEEQYRFLYHTVAQLFSRTLQDTSPHYQNLKENCAPICKEAFSLRTSSALPATSRPPGGVLRSISVPAPPTLPMADTYAVVQKRGASAGTGPGPRAPTSTDTPIYSQVAPRAQRPVAHTEDAQGTTALRRVPADQNSSGPDAYEEVTDGAQTGGLGFNLRIGRPKGPADPPAEWTRV [R444A]: the “effect of a mutation on the interaction” value is reported as “decreasing interaction”.

The variants in a further assay derive from B2. The note with it: with ptn18_mouse Ptpn18, Q61152.
Regarding W232A, the “effect of a mutation on the interaction” value was “disrupting interaction”.

Variants of B3 are the subject of a further assay. The conditions noted are these: with ptn18_mouse Ptpn18, Q61152.
Take MTGSLFKGNFWSTDILSTIGYDSIIQHLNNGRKNCKEFEDFLKERASIEEKYGKDLLNLSRKKPCGQSEINTLKRALEVFKQQVDNVAQCHIQLAQTLREEARKMEEFREKQKLQRKKTETIMDAAHKQRNAQFKKAMDAKKNYEQKCRDKDEAEQAVHRSANVANQRQQEKLFVKLATSKTAVEDSDKAYMLHINMLEKVREDWQSEHIKACEVFEAQECERINFFRNALALHLNQLSQQCVANDEMYEQVRKSLETCSIEKDIQYFVNQRKTGQTPPAPIMYENFYSPQRNAAPPGKTTGPNPARRGPLPVPKRIPDDPDYSVVEDYSLLYQ [W232A]: the “effect of a mutation on the interaction” value was “disrupting interaction”.

The variants in another assay derive from B4. The conditions noted are these: with ppip1_mouse Pstpip1, P97814.
As to MSRHTDLVRSFLEQLEARDYREGAILAREFSDIKARSVAWKSEGVCSTKAGSRLGNTNKNRYKDVVAYDETRVILSLLQEEGHGDYINANFIRGIDGSQAYIATQGPLPHTLLDFWRLVWEFGVKVILMACQETENGRRKCERYWAREQEPLKAGPFCITLTKETTLNADITLRTLQVTFQKEFRSVHQLQYMSWPDHGVPSSSDHILTMVEEARCLQGLGPGPLCVHCSAGCGRTGVLCAVDYVRQLLLTQTIPPNFSLFQVVLEMRKQRPAAVQTEEQYRFLYHTVAQLFSRTLQDTSPHYQNLKENCAPICKEAFSLRTSSALPATSRPPGGVLRSISVPAPPTLPMADTYAVVQKRGASAGTGPGPRAPTSTDTPIYSQVAPRAQRPVAHTEDAQGTTALRRVPADQNSSGPDAYEEVTDGAQTGGLGFNLRIGRPKGPRDPPAEATRV [W450A], the “effect of a mutation on the interaction” value is reported as “decreasing interaction”.

Variants of B4 are the subject of another assay. The note with it: with ppip1_mouse Pstpip1, P97814. The source holds these as a separate data set.
With MSRHTDLVRSFLEQLEARDYREGAILAREFSDIKARSVAWKSEGVCSTKAGSRLGNTNKNRYKDVVAYDETRVILSLLQEEGHGDYINANFIRGIDGSQAYIATQGPLPHTLLDFWRLVWEFGVKVILMACQETENGRRKCERYWAREQEPLKAGPFCITLTKETTLNADITLRTLQVTFQKEFRSVHQLQYMSWPDHGVPSSSDHILTMVEEARCLQGLGPGPLCVHCSAGCGRTGVLCAVDYVRQLLLTQTIPPNFSLFQVVLEMRKQRPAAVQTEEQYRFLYHTVAQLFSRTLQDTSPHYQNLKENCAPICKEAFSLRTSSALPATSRPPGGVLRSISVPAPPTLPMADTYAVVQKRGASAGTGPGPRAPTSTDTPIYSQVAPRAQRPVAHTEDAQGTTALRRVPADQNSSGPDAYEEVTDGAQTGGLGFNLRIGRPKGPADPPAEWTRV [R444A], the “effect of a mutation on the interaction” value was “decreasing interaction”.
